B1: PEP027 (peptide)
peptide: FFRKNFLRLTF
notes: Synthetic peptide
B2: polypeptide LGVVRPRALHRELDLVDDSPTPGSPGSFFRKNWLRLTW (SEQ ID NO: 77) (peptide)
peptide: LGVVRPRALHRELDLVDDSPTPGSPGSFFRKNWLRLTW
notes: also called polypeptide comprising PEP006; PEP006-containing polypeptide
B3: PEP006 (peptide)
peptide: FFRKNWLRLTW
notes: Synthetic peptide
B4: PEP001 (peptide)
peptide: FFRKNLLRLTG
notes: Synthetic peptide
B5: PEP012 (peptide)
peptide: FFRKNWLKLTW
notes: Synthetic peptide
B6: PEP057 (peptide)
peptide: FFRKNWLKLRW
notes: Synthetic peptide
B7: PEP014 (peptide)
peptide: FFRKQWLRLTW
notes: Synthetic peptide
B8: PEP010 (peptide)
peptide: FFRKNWLRLFW
notes: Synthetic peptide
B9: PEP011 (peptide)
peptide: FFRKNWLRLKW
notes: Synthetic peptide
B10: PEP008 (peptide)
peptide: FFRKFWLRLTW
notes: Synthetic peptide
B11: PEP003 (peptide)
peptide: FFRKNWLLLTW
notes: Synthetic peptide
B12: PEP155 (peptide)
peptide: FFRKNLLRLTW
notes: Synthetic peptide
B13: PEP004 (peptide)
peptide: FFRKNLLRWTG
notes: Synthetic peptide
B14: PEP055 (peptide)
peptide: FFRKNWLKLKW
notes: Synthetic peptide
B15: PEP009 (peptide)
peptide: FFRKNWLRLLW
notes: Synthetic peptide
B16: PEP028 (peptide)
peptide: FRNWLRLTW
notes: Synthetic peptide
B17: PEP058 (peptide)
peptide: FFRKNWLKLWK
notes: Synthetic peptide
B18: PEP013 (peptide)
peptide: FFRKNWIRITW
notes: Synthetic peptide
B19: PEP002 (peptide)
peptide: FFRKNRLLLTG
notes: Synthetic peptide
B20: PEP005 (peptide)
peptide: FFRKNRLWLTG
notes: Synthetic peptide

Assays:
[1] = target: T1, recombinant human heat shock cognate 71 kDa protein (Hsc70) (human, UniProt P11142 1-646, limits assumed); experiment: SEC of peptide-Hsc70 mixture; peptide:Hsc70 molar ratio 1:1
T1 construct: also called rhHsc70; human Hsc70
T1 sequence (P11142 whole entry): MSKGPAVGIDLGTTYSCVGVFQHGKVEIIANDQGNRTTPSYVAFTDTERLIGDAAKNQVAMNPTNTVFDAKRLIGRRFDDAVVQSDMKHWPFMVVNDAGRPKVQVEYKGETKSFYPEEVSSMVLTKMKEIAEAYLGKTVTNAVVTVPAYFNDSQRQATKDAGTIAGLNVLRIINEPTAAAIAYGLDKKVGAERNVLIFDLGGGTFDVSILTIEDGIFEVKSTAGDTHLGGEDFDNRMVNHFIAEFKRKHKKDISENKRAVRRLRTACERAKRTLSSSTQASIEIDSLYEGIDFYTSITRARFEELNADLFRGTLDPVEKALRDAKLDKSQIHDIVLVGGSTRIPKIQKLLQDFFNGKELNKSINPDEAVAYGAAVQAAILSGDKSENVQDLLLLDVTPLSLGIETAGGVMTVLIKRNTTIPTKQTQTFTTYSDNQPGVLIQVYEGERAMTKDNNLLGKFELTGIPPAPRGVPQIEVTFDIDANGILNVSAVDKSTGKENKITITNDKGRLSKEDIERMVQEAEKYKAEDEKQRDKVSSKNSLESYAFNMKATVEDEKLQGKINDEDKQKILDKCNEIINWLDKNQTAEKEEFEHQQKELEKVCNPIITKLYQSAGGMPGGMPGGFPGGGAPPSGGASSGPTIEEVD

[2] = target: T1, recombinant human heat shock cognate 71 …; experiment: SEC of peptide-Hsc70 mixture; peptide:Hsc70 molar ratio 2:1
[3] = target: T1, recombinant human heat shock cognate 71 …; experiment: SEC of peptide-Hsc70 mixture; peptide:Hsc70 molar ratio 4:1
[4] = target: T1, recombinant human heat shock cognate 71 …; experiment: SEC of peptide-Hsc70 mixture; peptide:Hsc70 molar ratio 0.5:1
[5] = target: T1, recombinant human heat shock cognate 71 …; experiment: SEC of peptide-Hsc70 mixture; peptide:Hsc70 molar ratio 0.25:1
[6] = target: T1, recombinant human heat shock cognate 71 …; experiment: size exclusion chromatography of polypeptide-Hsc70 mixtures, molar ratios 0.125:1 to 4:1 (FIG. 3A)

Percent complexation with Hsc70 [1] [%]	Percent complexation with Hsc70 [2] [%]	Percent complexation with Hsc70 [3] [%]	Percent complexation with Hsc70 [4] [%]	Percent complexation with Hsc70 [5] [%]	binding result [6]	Binder
77	85.6	90	49	19.1		B1
					binds	B2
81.5	88.3	91.8	53.4	25.4		B3
68.1	82.5	90.1	44.7	23.4		B4
79.2	86.2	89.5	58.2	29.9		B5
72.2	82.8	88.3	50	24.9		B6
80.9	88.1	90.3	54.4	29.3		B7
64.9	79.3	86.5	42.2	19.1		B8
81.6	87.8	90.4	58.2	31.2		B9
61.8	79.1	81.6	38.3	24.4		B10
67.2	81.3	87.6	45.6	26.8		B11
75.6	82.9	86.6	48.1	22.5		B12
46.8	62.5	75.3	29	15.4		B13
75.9	83.7	86.3	52.2	24.1		B14
81	85.3	89	63.5	32.8		B15
75.6	84.1	87.5	46.4	24		B16
66.5	78.8	83.9	43.5	22.7		B17
69.6	81.9	87.7	48.3	25.6		B18
48.7	64.8	78.8	32	19.2		B19
54.8	67.6	77.6	32.7	16		B20

Source: patent publication US20220008527A1 (AGENUS, published 2022)
